# Experimental data reported in patent publication US20230263867.
# Experiments:
# [1] = system: fluorescent tripeptidyl substrate PRR, MeOC-GGG-PRR-GG-DPA-KK-NH2
# [2] = molecular target: albumin in human plasma / human serum (UniProt P02768)
# [3] = system: recombinant pro-stem bromelain
# [4] = system: recombinant pro-fruit bromelain
# [5] = system: T1, FVR-7-amino-4-methylcoumarin
# T1 sequence: FVR
# Chain of UniProt P02768 (P02768 whole entry, looked up): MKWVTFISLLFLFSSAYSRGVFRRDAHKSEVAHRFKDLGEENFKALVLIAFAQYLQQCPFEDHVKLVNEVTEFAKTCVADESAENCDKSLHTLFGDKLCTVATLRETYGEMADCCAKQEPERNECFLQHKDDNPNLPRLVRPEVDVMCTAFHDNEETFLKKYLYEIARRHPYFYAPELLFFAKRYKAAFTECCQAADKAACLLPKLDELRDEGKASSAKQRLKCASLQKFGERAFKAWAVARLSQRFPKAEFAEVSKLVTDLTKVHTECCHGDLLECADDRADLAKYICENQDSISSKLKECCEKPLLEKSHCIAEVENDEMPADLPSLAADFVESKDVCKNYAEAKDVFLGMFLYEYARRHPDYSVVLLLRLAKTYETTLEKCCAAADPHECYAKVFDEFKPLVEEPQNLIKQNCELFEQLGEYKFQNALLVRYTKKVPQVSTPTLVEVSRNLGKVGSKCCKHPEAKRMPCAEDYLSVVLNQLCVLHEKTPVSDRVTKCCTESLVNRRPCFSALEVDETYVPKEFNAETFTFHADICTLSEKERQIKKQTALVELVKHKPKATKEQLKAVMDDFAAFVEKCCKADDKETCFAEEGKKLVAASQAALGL
substance,measurement,setting,value
activated stem bromelain,initial rate of proteolysis of PRR (fluorescence),[1],about 0.024 µg PRR molecules per min
"active ananain (recombinant, obtained by activation of pro-ananain)","proteolysis of human plasma/serum proteins, SDS-PAGE",[2],"The clear reduction of albumin in sample A, C and D in the presence of ananain indicates that albumin is a protein substrate for ananain"
same,"cleavage of pro-SB by active ananain, SDS-PAGE time course",[3],"mixing active ananain and pro-SB at a weight ratio of 1:25 led to a complete cleavage of pro-SB within 10 min, resulting in two fragments of 24 and 12 kDa"
same,"cleavage of pro-SB on an ananain-immobilized column, SDS-PAGE",[3],The collected activated SB was subject to SDS-PAGE analysis and was confirmed to be fully activated
same,"cleavage of pro-FB on an ananain-immobilized column, SDS-PAGE",[4],The collected activated FB was subject to SDS-PAGE analysis and was confirmed to be fully activated
recombinant pro-fruit bromelain,proteolysis of FVR-AMC (fluorescence),[5],pro-FB did not cleave FVR-AMC at all
recombinant pro-stem bromelain,initial rate of proteolysis of PRR (fluorescence),[1],the cleavage of PRR by 100 nM Pro-SB was negligible
